The record followed here is patent US20120064125A1 (priority 2009, published 2012).

This assay has as its system USA300 strain LAC biofilm. Kind of assay: Protease and DNaseI treatment of USA300 titanium biofilms (CLSM, COMSTAT). The class given is cell-based, Staphylococcus aureus. Particulars: 2 day biofilm, Proteinase K 2 μg/mL or DNaseI 0.5 Units/mL. How it is done: FIGS. 4A-B. Protease and DNaseI treatment of USA300 titanium biofilms. Biofilms of LAC with plasmid pCM12 were grown for two days on titanium. Biofilms were either untreated or grown in the presence of Proteinase K or DNaseI. For treatments, Proteinase K was added to 2 μg/mL and DNaseI was added to 0.5 Units/mL to the flow cell media. At 6 and 22 hr, CLSM images were obtained and analyzed. (FIG. 4A) Representative CLSM image reconstructions generated from a z series. Each side of the image grid square is 20 μm. (FIG. 4B) COMSTAT analysis of images represented in terms of average thickness (μm) and biomass (μm^3/μm^2). Green triangles represent untreated biofilm, red circles represent DNaseI treatment, and black squares represent Proteinase K treatment. Error bars represent standard deviation.
Biofilm Assays. For biofilms grown on glass, flow cell biofilm growth, confocal scanning laser microscopy (CSLM), and computer image analysis were performed as previously described (Boles and Horswill, 2008). […] For biofilm dispersal tests, AIP type I (AIP-I) was synthesized and quantified using an intein system (Malone et al., 2007), and biofilm dispersal tests were performed as previously described (Boles and Horswill, 2008). […] LAC biofilm integrity was monitored at 6 hr and 22 hr, and COMSTAT analysis was performed to quantify the biofilm properties. […]

B1: proteinase K: Proteinase K (Research Productions International), protease added to flow cell media (protein, UniProt P06873 106-384, looked up)
Proteinase K: AAQTNAPWGLARISSTSPGTSTYYYDESAGQGSCVYVIDTGIEASHPEFEGRAQMVKTYYYSSRDGNGHGTHCAGTVGSRTYGVAKKTQLFGVKVLDDNGSGQYSTIIAGMDFVASDKNNRNCPKGVVASLSLGGGYSSSVNSAAARLQSSGVMVAVAAGNNNADARNYSPASEPSVCTVGASDRYDRRSSFSNYGSVLDIFGPGTSILSTWIGGSTRSISGTSMATPHVAGLAAYLMTLGKTTAASACRYIADTANKGDLSNIPFGTVNLLAYNNYQA
In the case of B1, the “LAC biomass detached from the titanium surface” value (6 hr) was “approximately 93%” and the “LAC biomass detached from the titanium surface” value (22 hr) was “all of the LAC biomass had detached”.
